This note sets out measurements from article PMC3137230 (ACS Chemical Biology, 2011).

This data set deals with the molecule itself. Briefly: crystal structure.

B1: MmOmeRS, C-terminal catalytic domain (residues 185-454) of the evolved Methanosarcina mazei pyrrolysyl-tRNA synthetase (enzyme, UniProt Q8PWY1 185-454, looked up)
chain: ASAPALTKSQTDRLEVLLNPKDEISLNSGKPFRELESELLSRRKKDLQQIYAEERENYLGKLEREITRFFVDRGFLEIKSPILIPLEYIERMGIDNDTELSKQIFRVDKNFCLRPMLTPNLYNYLRKLDRALPDPIKIFEIGPCYRKESDGKEHLEEFTMLVFWQMGSGCTRENLESIITDFLNHLGIDFKIVGDSCMVFGDTLDVMHGDLELSSALVGPIPLDREWGIDKPWIGAGFGLERLLKVKHDFKNIKRAARSESYYNGISTNL
As for B1, the binding result is “binds”.
